What was measured:
[1] = target: HLA-A*26:01; experiment: IEDB peptide-MHC binding, purified MHC/competitive/fluorescence; filed as Kd, often an IC50 or EC50 that approximates it; ≥ and ≤ were set here for values at or beyond the usual limits of such assays
[2] = target: HLA-B*46:01; experiment: as above; conditions: source organism: Neembucu hantavirus
[3] = target: HLA-B*57:01; experiment: as above; conditions: source organism: Neembucu hantavirus
[4] = target: HLA-B*15:17; experiment: as above; conditions: source organism: Neembucu hantavirus
[5] = target: HLA-B*27:03; experiment: as above; conditions: source organism: Neembucu hantavirus
[6] = target: HLA-B*18:01; experiment: as above; conditions: source organism: Neembucu hantavirus
[7] = target: HLA-B*39:01; experiment: as above; conditions: source organism: Neembucu hantavirus
[8] = target: HLA-A*02:01; experiment: as above
[9] = target: HLA-B*51:01; experiment: as above; conditions: source organism: Neembucu hantavirus
[10] = target: HLA-A*24:03; experiment: IEDB peptide-MHC binding, purified MHC/direct/fluorescence; filed as Kd, often an IC50 or EC50 that approximates it; ≥ and ≤ were set here for values at or beyond the usual limits of such assays; conditions: source organism: Lechiguanas virus
[11] = target: HLA-A*68:02; experiment: as above; conditions: source organism: Lechiguanas virus
[12] = target: HLA-A*02:03; experiment: as above; conditions: source organism: Lechiguanas virus
[13] = target: HLA-A*03:01; experiment: as above; conditions: source organism: Lechiguanas virus
[14] = target: HLA-A*01:01; experiment: as above; conditions: source organism: Neembucu hantavirus
[15] = target: HLA-A*02:12; experiment: as above; conditions: source organism: Lechiguanas virus
[16] = target: HLA-A*23:01; experiment: as above; conditions: source organism: Lechiguanas virus
[17] = target: HLA-A*02:19; experiment: as above; conditions: source organism: Lechiguanas virus
[18] = target: HLA-B*58:01; experiment: IEDB peptide-MHC binding, purified MHC/competitive/fluorescence; filed as Kd, often an IC50 or EC50 that approximates it; ≥ and ≤ were set here for values at or beyond the usual limits of such assays; conditions: source organism: Yersinia pestis Nepal516
[19] = target: HLA-A*03:01; experiment: as above; conditions: source organism: Yersinia pestis Nepal516
[20] = target: HLA-A*01:01; experiment: as above; conditions: source organism: Yersinia pestis Nepal516
[21] = target: HLA-B*08:01; experiment: IEDB peptide-MHC binding, purified MHC/competitive/radioactivity; filed as Kd, often an IC50 or EC50 that approximates it; ≥ and ≤ were set here for values at or beyond the usual limits of such assays; conditions: source organism: Dengue virus 2 16681-PDK53
[22] = target: HLA-A*02:06; experiment: as above; conditions: source organism: Dengue virus 2 16681-PDK53
[23] = target: HLA-A*02:17; experiment: as above
[24] = target: HLA-A*02:01; experiment: as above
[25] = target: HLA-A*11:01; experiment: IEDB peptide-MHC binding, purified MHC/competitive/fluorescence; filed as Kd, often an IC50 or EC50 that approximates it; ≥ and ≤ were set here for values at or beyond the usual limits of such assays
[26] = target: HLA-A*02:03; experiment: IEDB peptide-MHC binding, purified MHC/competitive/radioactivity; filed as Kd, often an IC50 or EC50 that approximates it; ≥ and ≤ were set here for values at or beyond the usual limits of such assays; conditions: source organism: Dengue virus 1 Singapore/S275/1990
[27] = target: HLA-B*08:02; experiment: IEDB peptide-MHC binding, purified MHC/direct/fluorescence; filed as Kd, often an IC50 or EC50 that approximates it; ≥ and ≤ were set here for values at or beyond the usual limits of such assays
[28] = target: HLA-A*26:01; experiment: IEDB peptide-MHC binding, purified MHC/competitive/radioactivity; filed as Kd, often an IC50 or EC50 that approximates it; ≥ and ≤ were set here for values at or beyond the usual limits of such assays; conditions: source organism: Dengue virus 3 Martinique/1243/1999
[29] = source organism: Neembucu hantavirus
[30] = source organism: Dengue virus 2 Thailand/NGS-C/1944
[31] = source organism: Dengue virus 3 China/80-2/1980
[32] = source organism: Dengue virus 1 Singapore/S275/1990
[33] = source organism: Giardia lamblia ATCC 50803
[34] = source organism: Dengue virus 2 Jamaica/1409/1983
[35] = source organism: Dengue virus 4 Philippines/H241/1956

Q: What does the source list for ETESATLFT?
A: Kd [1, 29]: ≥ 20000 nM; Kd [2]: ≥ 20000 nM; Kd [3]: ≥ 20000 nM; Kd [4]: ≥ 20000 nM; Kd [5]: ≥ 20000 nM; Kd [6]: ≥ 20000 nM; Kd [7]: ≥ 20000 nM; Kd [8, 29]: ≥ 20000 nM; Kd [9]: ≥ 20000 nM; Kd [10]: ≥ 20000 nM; Kd [11]: ≥ 20000 nM; Kd [12]: ≥ 20000 nM; Kd [13]: ≥ 20000 nM; Kd [14]: 592 nM; Kd [15]: ≥ 20000 nM; Kd [16]: ≥ 20000 nM; Kd [17]: ≥ 20000 nM

Q: Which Kd [18] does the source give for RTLDTLALY here?
A: Its Kd is 8.4 nM.

Q: And the Kd ([1]; source organism: Yersinia pestis Nepal516)?
A: Its Kd is 4500 nM.

Q: What about the Kd [19] of the same sequence?
A: The Kd was 132 nM.

Q: What about the Kd [20] of the same sequence?
A: Its Kd is 1210 nM.

Q: What does the source list for LQMENKAWLV?
A: Kd [21]: 6750 nM; Kd [22]: 1.17 nM; Kd [23, 30]: 142 nM; Kd [24, 30]: 10.1 nM

Q: Which Kd [23, 31] does the source give for LLLGLMILLT here?
A: Its Kd is 697 nM.

Q: What about the Kd [24, 31] of the same sequence?
A: The Kd was 1660 nM.

Q: With KTYFEKVERLK as the sequence, how does the Kd ([25]; source organism: Influenza A virus (A/swine/Scotland/410440/94(H1N2))) read?
A: Its Kd is 28.7 nM.

Q: LLFKTSVGV was tested. Which Kd [26] did it give?
A: Its Kd is 9.08 nM.

Q: What about the Kd [23, 32] of the same sequence?
A: The Kd was 90.3 nM.

Q: And the Kd [24, 32]?
A: The Kd was 3.22 nM.

Q: Which Kd ([27]; source organism: Campylobacter jejuni subsp. jejuni 81116) does the source give for DLKRKFYTL here?
A: The Kd was 154 nM.

Q: Which results are given for YARLRKEVL?
A: Kd [8, 33]: ≥ 20000 nM; Kd [27, 33]: 350 nM

Q: Which Kd [23, 34] does the source give for TLGMCCIITA here?
A: The Kd was 16900 nM.

Q: What about the Kd [24, 34] of the same sequence?
A: The Kd was 67.4 nM.

Q: Which Kd ([25]; source organism: Homo sapiens) does the source give for SSSPQPKKK here?
A: Its Kd is 554 nM.

Q: With RMVLAFITFL as the sequence, how does the Kd [23, 35] read?
A: Its Kd is 1.76 nM.

Q: And the Kd [24, 35]?
A: The Kd was 3.25 nM.

Q: For ELKGMSYAM, which Kd ([27]; source organism: dengue virus type 3) is on record?
A: Its Kd is no less than 20000 nM.

Q: And the Kd [28]?
A: Its Kd is 1740 nM.

Source: the Immune Epitope Database (IEDB)
